# Source: patent publication US20190202907A1 (180 THERAPEUTICS, published 2019)
# Positions count from the first letter of the chain named.
# T1: human ST2L (human, UniProt Q01638 19-328, limits assumed)
# T1 construct: also called IL-1R4; IL-33Ra
# T1 sequence (looked up): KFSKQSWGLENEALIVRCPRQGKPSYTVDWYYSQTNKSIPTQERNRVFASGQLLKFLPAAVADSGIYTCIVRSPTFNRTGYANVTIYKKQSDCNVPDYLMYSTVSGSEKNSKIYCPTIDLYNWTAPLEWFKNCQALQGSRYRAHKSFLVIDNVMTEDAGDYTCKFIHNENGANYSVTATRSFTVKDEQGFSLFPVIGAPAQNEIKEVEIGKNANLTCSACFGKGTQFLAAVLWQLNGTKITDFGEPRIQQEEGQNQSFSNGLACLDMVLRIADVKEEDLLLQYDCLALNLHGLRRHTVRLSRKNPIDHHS
# B1: STLM214 (antibody, from another filing, V domains shown)
# VH: EVQLLESGGGLVQPGGSLRLSCAASGFTFSSYDMFWVRQAPGKGLEWVSDIKGEGGRTAYADSVKGRFTISRDNSKNTLYLQMNSLRAEDTAVYYCARDPWSTEGSFFVLDYWGQGTLVTVSS
# VL: EIVLTQSPATLSLSPGERATLSCRASQSVDDDLAWYQQKPGQAPRLLIYDASNRATGIPARFSGSGSGTDFTLTISSLEPEDFAVYYCQQYIDAPLTFGQGTKVEIK
# B2: STLM216 (antibody, from another filing, V domains shown)
# VH: B1 VH with R57A, A59N
# VL: B1 VL with D93G, L96I
# B3: STLM215 (antibody, from another filing, V domains shown)
# VH: B1 VH with D50A, K52A, A59Y
# VL: B1 VL with D93G, L96I
# Target: T1, human ST2L
# Test: affinity table; method not stated
Kd,koff,kon,Binder
0.033 nM,0.000299 s⁻¹,9.16e+06 M⁻¹ s⁻¹,B1
0.016 nM,0.000158 s⁻¹,9.63e+06 M⁻¹ s⁻¹,B2
0.025 nM,0.000172 s⁻¹,6.91e+06 M⁻¹ s⁻¹,B3

# Target: cyno ST2L (cyno)
# Test: affinity table; method not stated
Kd,koff,kon,Binder
0.037 nM,0.000264 s⁻¹,7.2e+06 M⁻¹ s⁻¹,B1
0.003 nM,0.000264 s⁻¹,7.89e+07 M⁻¹ s⁻¹,B2
0.01 nM,0.000369 s⁻¹,3.54e+07 M⁻¹ s⁻¹,B3
